Measured values taken from patent US20190300625A1 (Regeneron, published 2019).

Columns and labels:
[1] = molecular target: T1, mfTMPRSS2 knob_mmh (W106-R255).mmh (monkey); assay: SPR (Biacore 4000), mAb captured by anti-mouse Fc, HMM-mfTMPRSS2 as analyte, 25 C
T1 construct: also called mfTMPRSS2.mmh; HMM-mfTMPRSS2

[2] = molecular target: T2, hTMPRSS2 knob_mmh (W106-R255).mmh (human); assay: SPR (Biacore 4000), mAb captured by anti-mouse Fc, HMM-hTMPRSS2 as analyte, 37 C
T2 construct: also called hTMPRSS2.mmh; HMM-hTMPRSS2
T2 sequence (chain, as listed by the source limits assumed): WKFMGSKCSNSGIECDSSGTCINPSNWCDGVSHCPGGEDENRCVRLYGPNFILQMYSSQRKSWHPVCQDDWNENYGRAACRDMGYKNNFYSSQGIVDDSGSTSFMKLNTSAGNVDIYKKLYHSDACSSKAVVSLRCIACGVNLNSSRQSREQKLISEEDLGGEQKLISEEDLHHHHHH

[3] = molecular target: T2, hTMPRSS2 knob_mmh (W106-R255).mmh; assay: SPR (Biacore 4000), mAb captured by anti-mouse Fc, HMM-hTMPRSS2 as analyte, 25 C
[4] = molecular target: T1, mfTMPRSS2 knob_mmh (W106-R255).mmh; assay: SPR (Biacore 4000), mAb captured by anti-mouse Fc, HMM-mfTMPRSS2 as analyte, 37 C

T1 sequence (chain, as listed by the source limits assumed): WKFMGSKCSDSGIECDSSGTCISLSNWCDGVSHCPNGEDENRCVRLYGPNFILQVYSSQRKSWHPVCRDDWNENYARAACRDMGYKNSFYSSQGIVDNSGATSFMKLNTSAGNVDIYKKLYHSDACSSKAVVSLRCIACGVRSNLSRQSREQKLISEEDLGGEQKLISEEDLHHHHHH

B1: H2aM7017N (antibody, V domains shown)
VH: QVQLVESGGGVVQPGRSLRLSCAASGFTFSSYGMHWVRQSPGKGLEWVAVIWNDGSYVYYADSVKGRFTISRDISKNTLFLQMNSLRAEDTAVYYCAREGEWVLYYFDYWGQGTLVTVSS
VL: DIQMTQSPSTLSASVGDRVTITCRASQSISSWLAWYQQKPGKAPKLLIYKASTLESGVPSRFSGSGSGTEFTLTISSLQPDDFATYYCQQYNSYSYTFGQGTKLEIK
notes: also called anti-TMPRSS2 monoclonal antibody (Biacore)
B1 was tested, and the Kd [1] was 56 nM, the koff [1] was 0.0157 s⁻¹ and the kon [1] was 280000 M⁻¹ s⁻¹. For the same binder, the t½ [1] was 0.7 min, the Kd [2] was 9.31 nM and the koff [2] was 0.00323 s⁻¹. For the same binder, the kon [2] was 347000 M⁻¹ s⁻¹, the t½ [2] was 3.6 min and the Kd [3] was 2.81 nM. For the same binder, the koff [3] was 0.000745 s⁻¹, the kon [3] was 265000 M⁻¹ s⁻¹ and the t½ [3] was 15.5 min. It also gave a Kd [4] of 140 nM, a koff [4] of 0.0512 s⁻¹ and a kon [4] of 366000 M⁻¹ s⁻¹. For the same binder, the t½ [4] was 0.2 min.
